In the nanobody polyreactivity screen of Harvey et al. (2022):

Experiment: yeast display, Sf9 membrane polyspecificity reagent, FACS + sequencing; frameworks hold sequencing errors
Procedure, shortened: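 In a synthetic yeast display library (Saccharomyces cerevisiae BJ5465), nanobody expression was induced with galactose for 36–48 hours. FACS gates were set low and high (top ~1%) using anti-HA fluorescence for expression and streptavidin fluorescence for binding of the Sf9 membrane reagent. Each polyreactivity label is drawn from the gate of origin.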

Sequence	polyreactivity (PSR sort gate)
QVQLVESGGGLVQAGGSLRLSCAASGRTFYYYTMGWYRQAPGQERELVAAISVSGGTTYYADSVKGRFTISRDNAKYSVYLQMNSLKPDDTAVYYCAAGDGWGRRYYWGQGTQVNVSS	high polyreactivity
QVQLVESGRGLVQAGGSLRLSCAASGSIFVDYTMGWYRQAPGKERELVARITSGGSTYYADSVKGRFTISRDNAKNSVYLQMNSLKPEDTAVYYCAARPYYRYRNSWREQYYYWGQGTQVTVSS	high polyreactivity
QVQLVESGGGLVQAGGSLRLSCAASGSTFHRYTMGWYRQAPGKERELVAAISSGVNTDYADSVKGRFTISRDNAKNTVYLQMNSLKPEDTEVYYCNTSFGSPQVVRYEYWGQGTQVTVSS	low polyreactivity
QVKLVESGGGLVQAVGILSLSCAASGSILGLYAMGWYRQAPGKERELVASITSSGSTYYADSVKGRFTISRDNAKNTVYLQMIILKPEDTAVYYCAAVVSYYYYIRYDYWGQGTQVTVSS	low polyreactivity
QVQLVESGGGLVQAGGSLRLSCAASGSTFGYYAMGWSRQAPGKEREFVAAITYGDGNTYYADSVKGRFTISRDNAKNTVYLQMNRLKREDTEVYYCAKYYWGPTGAHGGYGYWGQGTQVTVCS	low polyreactivity
QVQLVESGGGLVQAGGSLRLSCASSGRTFAWYAMGWYRQAPGKERELVAAISNVGSTYYADSVKGRFTISRDNAKNTVYLQMNSLKPEDTAVYYCNADAVSTDGREYWGQGTQVTVSS	low polyreactivity
QVQLVESGGGLVQAGGSLRLSCAASGRIFRRYAMGWYRQAPGKERELVAAISSGGSTNYADSVKGRFTLSRDNAKNTVYLQMNSLKPEDTAVYYCAARRTATTSRAYYYWGQGNQVTVSS	high polyreactivity
QVQLVESGGGLVQAGGSLRLSCAASGRIFDDNAMGWYRQAPGKETELVAAISSSGGSTYYADSVKGRFTISRDNAKNSVYLQMNSLKPEDTAVYYCAKAPGQDTPYPYGYWGQGTQVTVSS	high polyreactivity
QVQLVESGGGLVQAGGSLRLSCAASGRTFGYNVMGWYRQAPGKERELVAAINRGGGSTYYADSVKGRFTISRDNANNTVYLQMNSLKPEDTAVYYCIKRYRVWFDYWGQGTQVTVSS	high polyreactivity
QVQLVESGGGLVQAGGSLRLSCAASGRIFSSYAMGWYRQAPGKERELVARISYSGGSTYYADSVKGRFTISRDNAKNTVYLQMNSLKPEDTAVYYCNARYYGYGAGYRPYDYWGQGTQVTVSS	high polyreactivity
QVQLVESGGGLVQAGGSLRLSCAASGRTIKRYAMGWYRQAPGKERELVATISRSGSSTYYADSVKGRFTISRDNAKNTVYLQMNSLIPEDTAVYYCNAYVPDIWVNGYDSWGQGTQVTVSS	high polyreactivity
QVQLVESGGGLVQAGGSLRLSCAPSGFTFDFYAMGWYRQEPGKATELFAAINSGGSTNYADSVKGRFTISRDNAKNTVYLQMNSLKPEDTAVYYCNADWFTPAQPWYRYFIRYDYWGQGSQVTVSS	low polyreactivity
QVQLVESGGGLVQAGGSLRLSCAASGRILYSYTMGWYRQAPGKEREFVAAITRSGGGTYYADSVKGRFTISRDNAKNTVYLQMNSLKPEDTAVYYCAYYTYYLAYGYWGQGTQVTVSS	high polyreactivity
QVQLVESGGGLVQAGGSLRLSCAASGSTFGYYAMGWYRQAPGKERELVATITWSGGSTNYADSVKGRFTISRDNAKNTVYLQMNSLKPEDTAVYYCAADLKYWYFGLAFIEVDYWGQGTQVTVSS	low polyreactivity
QVQLVESGGGFVQAGGSLRLSCAASGRIFAFYTMGWSRQAPGKEREFVAAISRSGGSTYYADSVKGRFTISRDNAKNTVYLQMNSLKPEDTAVYYCAKGGYSPKRVKYYDYWGQGTQVTVSS	low polyreactivity
QDQLVESGGGLVQAGGSLRLSCAASGSTFDSYDMGWYRQAPGKERELVAAISGGGGTYYADSVKGRFTISRDNAKNTVYLQMNSLKPEDTAVYYCAARTNGWPGMGYWGQGTQVTVSS	high polyreactivity

Sequence	polyreactivity (PSR sort gate)
QVQLVESGGGLVQAGVSLRLSCAASGITFPYYTMGCYRQAPGKERELVAAITSGGSTNYADSVKGRFTISRDNAKNTVYLQMNSLKPEDTAVYYCDGVLWLFDYWGQGTQVTVSS	high polyreactivity
QVQLVESGGGLVQAGGSLRLSCAASGRIFYSYAMGWYRQAPGKERELVAAISSRTGSTYYADSVKGRFTISRDNAKNTVYLQMNSLKPEDTAVYYCAAQSGWLRYYYWGQGTLVTVSS	high polyreactivity
QVQLVESGVGLFQAGGSLRLSCAASGITFYSYAMGWYRQAPGKESQLVATISRSGSTYYADSVKGRFTISRDNAKNSVYLQMNSLKPEDTAVYYCAAYYAVRGATYRYGYWGQGTQVTVSS	high polyreactivity
QVQLVESGGGLVQAGGSLRLSCAASGFIFKVYAMGWYRQAPGKERELVDAISRSGGSTYYADSVKGRFTISRDHAKNTVYLQMKSLKPEDTAVYYCAADYDVTGDSDYWGQGTQVTVSS	low polyreactivity
QVQLVESGGGLVQAGGSLRLSCAASGSILDLNAMGWYRQAPGKERELVAAISYSGDSTYYADSVKGRFTISRDNAKNTVYLQMNSLKPEDTAVYYCAAEVYGAVFDYWGQGTQVTVSS	low polyreactivity
QVQLVESGGGLVQAGGSLRLSCAASGIIFDINAMGWYRQAPGKERELVAAITTSVDSTYYADSVKGRFTISRDNAKNTVYLQMNSLKPEDTAVYYCAVAFVQFTQYDYWGQGTQVTVSS	low polyreactivity
QVQLVESGGGLVQAGGSLRLSCDASGFNFASNDMGWYRPAPGKERELVAAITKGGGRTYYADSVKGRFTISRDNAKNTVYLQMNSLKPEDTAVYYCAARQLIKYDYWGQGTQVTVSS	low polyreactivity
QVQLVESGGGLVKARGSLLLSCAASGFTFPYNAMGWYRQAPGKDRELVAAISWSGGSTYYADSVKGRFTLSRDNAKNTVYLQMNSLKPEDTAVYYCAASYWWIPMEYWGQVTQVTVSS	high polyreactivity
QVQLVESGGGLVQAGGSLRLSCAASGSIFGSYAMGWYRQAPGKERELVAAITYSGGSTYYADSVKGRFTISRDNAKNTVYLHMNSLKPEDTAVYYCAADYSFYWAYFDYWGQGTQVTVSS	high polyreactivity
QVQLVESGGGLVQAGGSLRLSCAASGSIFSINTMGWYRQPPGKERELVAAITRSGSGTYYADSVKGRFTISRDNAKNTVYLQMNSLKPEDTAVYYCAKPAGARLGYWGQGTQVTVSS	low polyreactivity
QVQLVESGGGLVQAGGSLRLSCAASGRIVRFYGMGWYRQAPGKERELVAAITDGCGTNYADSVKGRFSISRDNAKNTVYLQMNSLKPEDTAVYYCAADSRFVWSGEYWGQGTQVTVSS	low polyreactivity
QVQLVESGGGLVQAGGSLRLSCAASGSTLDVYDMGWYRKAPGKEREFVATISFSVGSTDYADSVKGRFTISRDNAKNTVYLQMNSLKPEDTAVYYCAADVSEWSNQYFDSYLRMDYWGQGTQVTVSS	low polyreactivity
QVQLVESGGGLVQAGGSLRLSCAASGSIFYYYAMGLYRQAPGKERELVAAITRRGGNTYYADSVKGRFTISRDNAKNTVYLQMNSLKPEDTAVYYCNAPGFAWYTTKYDYWGQGTQVTVSS	low polyreactivity
QVQLEESGVGLVQAGGSLRLRCAASGSTVTDNTKGWYRQAPGKERELVAPISGVGSTYYSESVKGRFTISRDNAKNTVYFQMHSLKPEDTAVYYCNVYWGPFYRSGDKYGYWGQGTQVTVSS	low polyreactivity
QVQLVESGGGLVQAGGSLRLSCAASGSTFKNNAMGWYRQEPGKEREFVASISKRGGSTYYADSVKGRFTISRDNAKNTVYLQMNSLKPEDTAVDYCAKTYWSYGWSHGDYGEFDYWGQGTQVTVSS	high polyreactivity
QVQLVESGGGLVQAGGSLRLSCAASGSTFYKYGMGWYRQAPGTERELVAAISGSGDSTYYADSVKGRFTISRDNAKNTVYLQMNSLKPEDTAVYYCNAGPWWYLHEYDYWGQGTQVTVSS	low polyreactivity
